Test results published in patent US20160333095A1 (Genmab, published 2016).

B1: IgG1-huCD3-H1L3-LFLEDA (antibody, V domains shown)
VH: EVKLVESGGGLVQPGGSLRLSCAASGFTFNTYAMNWVRQAPGKGLEWVARIRSKYNNYATYYADSVKDRFTISRDDSKSSLYLQMNNLKTEDTAMYYCVRHGNFGNSYVSWFAYWGQGTLVTVSS
VL: QAVVTQEPSFSVSPGGTVTLTCRSSTGAVTTSNYANWVQQTPGQAFRGLIGGTNKRAPGVPARFSGSILGNKAALTITGAQADDESDYYCALWYSNLWVFGGGTKLTVL
B2: IgG1-huCD3-H4L3-LFLEDA (antibody, V domains shown)
VH: EVKLVESGGGLVKPGRSLRLSCAASGFTFNTYAMNWVRQAPGKGLEWVARIRSKYNNYATYYADSVKDRFTISRDDSKSILYLQMNSLKTEDTAMYYCVRHGNFGNSYVSWFAYWGQGTMVTVSS
VL: QAVVTQEPSFSVSPGGTVTLTCRSSTGAVTTSNYANWVQQTPGQAFRGLIGGTNKRAPGVPARFSGSILGNKAALTITGAQADDESDYYCALWYSNLWVFGGGTKLTVL
B3: IgG1-huCD3-H4L1-LFLEDA (antibody, V domains shown)
VH: EVKLVESGGGLVKPGRSLRLSCAASGFTFNTYAMNWVRQAPGKGLEWVARIRSKYNNYATYYADSVKDRFTISRDDSKSILYLQMNSLKTEDTAMYYCVRHGNFGNSYVSWFAYWGQGTMVTVSS
VL: not shown
B4: IgG1-huCD3-H1L1-LFLEDA (antibody, V domains shown)
VH: EVKLVESGGGLVQPGGSLRLSCAASGFTFNTYAMNWVRQAPGKGLEWVARIRSKYNNYATYYADSVKDRFTISRDDSKSSLYLQMNNLKTEDTAMYYCVRHGNFGNSYVSWFAYWGQGTLVTVSS
VL: not shown
notes: also called IgG1-3huCD3-H1L1-LFLEDA; wild type IgG1-huCD3-H1L1-LFLEDA
B5: IgG1-huCD3-H3L3-LFLEDA (antibody, V domains shown)
VH: EVKLVESGGGLVKPGRSLRLSCAASGFTFNTYAMNWVRQAPGKGLEWVARIRSKYNNYATYYADSVKDRFTISRDDSKSILYLQMNSLKTEDTAMYYCVRHGNFGNSYVSWFAYWGQGTLVTVSS
VL: QAVVTQEPSFSVSPGGTVTLTCRSSTGAVTTSNYANWVQQTPGQAFRGLIGGTNKRAPGVPARFSGSILGNKAALTITGAQADDESDYYCALWYSNLWVFGGGTKLTVL
B6: bsIgG1-huCD3-H4L3×HER2-LFLEDA (bispecific antibody, V domains shown)
VH 1: EVKLVESGGGLVKPGRSLRLSCAASGFTFNTYAMNWVRQAPGKGLEWVARIRSKYNNYATYYADSVKDRFTISRDDSKSILYLQMNSLKTEDTAMYYCVRHGNFGNSYVSWFAYWGQGTMVTVSS
VL 1: QAVVTQEPSFSVSPGGTVTLTCRSSTGAVTTSNYANWVQQTPGQAFRGLIGGTNKRAPGVPARFSGSILGNKAALTITGAQADDESDYYCALWYSNLWVFGGGTKLTVL
VH 2: QVQLVQSGAEVKKPGASVKVSCKASGYTFTNYGISWVRQAPGQGLEWMGWLSAYSGNTIYAQKLQGRVTMTTDTSTTTAYMELRSLRSDDTAVYYCARDRIVVRPDYFDYWGQGTLVTVSS
VL 2: EIVLTQSPATLSLSPGERATLSCRASQSVSSYLAWYQQKPGQAPRLLIYDASNRATGIPARFSGSGSGTDFTLTISSLEPEDFAVYYCQQRSNWPRTFGQGTKVEIK
notes: LFLEDA = L234F/L235E/D265A
B7: bsIgG1-huCD3-H1L3×HER2-LFLEDA (bispecific antibody, V domains shown)
VH 1: EVKLVESGGGLVQPGGSLRLSCAASGFTFNTYAMNWVRQAPGKGLEWVARIRSKYNNYATYYADSVKDRFTISRDDSKSSLYLQMNNLKTEDTAMYYCVRHGNFGNSYVSWFAYWGQGTLVTVSS
VL 1: QAVVTQEPSFSVSPGGTVTLTCRSSTGAVTTSNYANWVQQTPGQAFRGLIGGTNKRAPGVPARFSGSILGNKAALTITGAQADDESDYYCALWYSNLWVFGGGTKLTVL
VH 2: QVQLVQSGAEVKKPGASVKVSCKASGYTFTNYGISWVRQAPGQGLEWMGWLSAYSGNTIYAQKLQGRVTMTTDTSTTTAYMELRSLRSDDTAVYYCARDRIVVRPDYFDYWGQGTLVTVSS
VL 2: EIVLTQSPATLSLSPGERATLSCRASQSVSSYLAWYQQKPGQAPRLLIYDASNRATGIPARFSGSGSGTDFTLTISSLEPEDFAVYYCQQRSNWPRTFGQGTKVEIK
notes: LFLEDA = L234F/L235E/D265A
B8: bsIgG1-huCD3-H4L1×HER2-LFLEDA (bispecific antibody, V domains shown)
VH 1: EVKLVESGGGLVKPGRSLRLSCAASGFTFNTYAMNWVRQAPGKGLEWVARIRSKYNNYATYYADSVKDRFTISRDDSKSILYLQMNSLKTEDTAMYYCVRHGNFGNSYVSWFAYWGQGTMVTVSS
VL 1: not shown
VH 2: QVQLVQSGAEVKKPGASVKVSCKASGYTFTNYGISWVRQAPGQGLEWMGWLSAYSGNTIYAQKLQGRVTMTTDTSTTTAYMELRSLRSDDTAVYYCARDRIVVRPDYFDYWGQGTLVTVSS
VL 2: EIVLTQSPATLSLSPGERATLSCRASQSVSSYLAWYQQKPGQAPRLLIYDASNRATGIPARFSGSGSGTDFTLTISSLEPEDFAVYYCQQRSNWPRTFGQGTKVEIK
notes: LFLEDA = L234F/L235E/D265A
B9: bsIgG1-huCD3-H3L3×HER2-LFLEDA (bispecific antibody, V domains shown)
VH 1: EVKLVESGGGLVKPGRSLRLSCAASGFTFNTYAMNWVRQAPGKGLEWVARIRSKYNNYATYYADSVKDRFTISRDDSKSILYLQMNSLKTEDTAMYYCVRHGNFGNSYVSWFAYWGQGTLVTVSS
VL 1: QAVVTQEPSFSVSPGGTVTLTCRSSTGAVTTSNYANWVQQTPGQAFRGLIGGTNKRAPGVPARFSGSILGNKAALTITGAQADDESDYYCALWYSNLWVFGGGTKLTVL
VH 2: QVQLVQSGAEVKKPGASVKVSCKASGYTFTNYGISWVRQAPGQGLEWMGWLSAYSGNTIYAQKLQGRVTMTTDTSTTTAYMELRSLRSDDTAVYYCARDRIVVRPDYFDYWGQGTLVTVSS
VL 2: EIVLTQSPATLSLSPGERATLSCRASQSVSSYLAWYQQKPGQAPRLLIYDASNRATGIPARFSGSGSGTDFTLTISSLEPEDFAVYYCQQRSNWPRTFGQGTKVEIK
notes: LFLEDA = L234F/L235E/D265A
B10: bsIgG1-huCD3-H1L1×HER2-LFLEDA (bispecific antibody, V domains shown)
VH 1: EVKLVESGGGLVQPGGSLRLSCAASGFTFNTYAMNWVRQAPGKGLEWVARIRSKYNNYATYYADSVKDRFTISRDDSKSSLYLQMNNLKTEDTAMYYCVRHGNFGNSYVSWFAYWGQGTLVTVSS
VL 1: not shown
VH 2: QVQLVQSGAEVKKPGASVKVSCKASGYTFTNYGISWVRQAPGQGLEWMGWLSAYSGNTIYAQKLQGRVTMTTDTSTTTAYMELRSLRSDDTAVYYCARDRIVVRPDYFDYWGQGTLVTVSS
VL 2: EIVLTQSPATLSLSPGERATLSCRASQSVSSYLAWYQQKPGQAPRLLIYDASNRATGIPARFSGSGSGTDFTLTISSLEPEDFAVYYCQQRSNWPRTFGQGTKVEIK
notes: LFLEDA = L234F/L235E/D265A
B11: IgG1-huCD3-H1L1 (antibody, V domains shown)
VH: EVKLVESGGGLVQPGGSLRLSCAASGFTFNTYAMNWVRQAPGKGLEWVARIRSKYNNYATYYADSVKDRFTISRDDSKSSLYLQMNNLKTEDTAMYYCVRHGNFGNSYVSWFAYWGQGTLVTVSS
VL: not shown
notes: IgG1,λ with wild-type Fc region
B12: IgG1-CD3-LFLEDA (antibody, V domains shown)
VH: EVKLLESGGGLVQPKGSLKLSCAASGFTFNTYAMNWVRQAPGKGLEWVARIRSKYNNYATYYADSVKDRFTISRDDSQSILYLQMNNLKTEDTAMYYCVRHGNFGNSYVSWFAYWGQGTLVTVSA
VL: QAVVTQESALTTSPGETVTLTCRSSTGAVTTSNYANWVQEKPDHLFTGLIGGTNKRAPGVPARFSGSLIGDKAALTITGAQTEDEAIYFCALWYSNLWVFGGGTKLTVL
notes: also called chimeric, parental CD3 antibody
B13: IgG1-huCD3-H3L3 (antibody, V domains shown)
VH: EVKLVESGGGLVKPGRSLRLSCAASGFTFNTYAMNWVRQAPGKGLEWVARIRSKYNNYATYYADSVKDRFTISRDDSKSILYLQMNSLKTEDTAMYYCVRHGNFGNSYVSWFAYWGQGTLVTVSS
VL: QAVVTQEPSFSVSPGGTVTLTCRSSTGAVTTSNYANWVQQTPGQAFRGLIGGTNKRAPGVPARFSGSILGNKAALTITGAQADDESDYYCALWYSNLWVFGGGTKLTVL
notes: as for B11
B14: IgG1-huCD3-H1L2 (antibody, V domains shown)
VH: EVKLVESGGGLVQPGGSLRLSCAASGFTFNTYAMNWVRQAPGKGLEWVARIRSKYNNYATYYADSVKDRFTISRDDSKSSLYLQMNNLKTEDTAMYYCVRHGNFGNSYVSWFAYWGQGTLVTVSS
VL: QAVVTQEPSFSVSPGGTVTLTCRSSTGAVTTSNYANWVQQTPGQAFRGLIGGTNKRAPGVPARFSGSILGNKAALTITGAQADDESIYFCALWYSNLWVFGGGTKLTVL
notes: as for B11
B15: IgG1-huCD3-H4L1 (antibody, V domains shown)
VH: EVKLVESGGGLVKPGRSLRLSCAASGFTFNTYAMNWVRQAPGKGLEWVARIRSKYNNYATYYADSVKDRFTISRDDSKSILYLQMNSLKTEDTAMYYCVRHGNFGNSYVSWFAYWGQGTMVTVSS
VL: not shown
notes: as for B11
B16: IgG1-huCD3-H1L3 (antibody, V domains shown)
VH: EVKLVESGGGLVQPGGSLRLSCAASGFTFNTYAMNWVRQAPGKGLEWVARIRSKYNNYATYYADSVKDRFTISRDDSKSSLYLQMNNLKTEDTAMYYCVRHGNFGNSYVSWFAYWGQGTLVTVSS
VL: QAVVTQEPSFSVSPGGTVTLTCRSSTGAVTTSNYANWVQQTPGQAFRGLIGGTNKRAPGVPARFSGSILGNKAALTITGAQADDESDYYCALWYSNLWVFGGGTKLTVL
notes: as for B11
B17: IgG1-huCD3-H3L1-LFLEDA (antibody, V domains shown)
VH: EVKLVESGGGLVKPGRSLRLSCAASGFTFNTYAMNWVRQAPGKGLEWVARIRSKYNNYATYYADSVKDRFTISRDDSKSILYLQMNSLKTEDTAMYYCVRHGNFGNSYVSWFAYWGQGTLVTVSS
VL: not shown

What follows are binders tested against T1, cynomolgus CD3 (cynomolgus monkey, UniProt Q95LI5 22-198) (assay: flow cytometry on HSC-F cells, FIG. 7A).
T1 construct: also called CD3 on the cynomolgus T-cell line HSC-F; cynomolgus CD3ε (epsilon)
T1 sequence (Q95LI5 22-198): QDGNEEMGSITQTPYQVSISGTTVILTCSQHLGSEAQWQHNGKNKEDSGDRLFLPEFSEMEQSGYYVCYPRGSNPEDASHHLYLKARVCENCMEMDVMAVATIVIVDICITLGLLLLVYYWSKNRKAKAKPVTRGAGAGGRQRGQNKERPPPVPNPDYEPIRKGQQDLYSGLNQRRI
Method: (§1) In addition to the non-activating mutations, LFLEDA, the antibody variants contained F405L or K409R mutations as described in Example 1.
(§2) Cells (1×10⁵ cells/well) were incubated in polystyrene 96-well round-bottom plates (Greiner bio-one 650101) with serial dilutions of antibody preparations (range 5 to 10,000 ng/mL in 3-fold dilutions) in 100 μL PBS/0.1% BSA/0.02% azide at 4° C. for 30 min.
(§3) After washing twice in PBS/0.1% BSA/0.02% azide, cells were incubated in 100 μL with secondary antibody at 4° C. for 30 min. As a secondary antibody, R-Phycoerythrin (PE)-conjugated goat-anti-human IgG F(ab′)2 (109-116-098, Jackson ImmunoResearch Laboratories, Inc., West Grove, Pa.) diluted 1/100 in PBS/0.1% BSA/0.02% azide, was used for all experiments. Next, cells were washed twice in PBS/0.1% BSA/0.02% azide, re-suspended in 150 μL PBS/0.1% BSA/0.02% azide and analyzed on a FACS Cantoll (BD Biosciences). Binding curves were analyzed using non-linear regression (sigmoidal dose-response with variable slope) using GraphPad Prism V 5.04 software (GraphPad Software, San Diego, Calif., USA).

**Q.** Does B1 bind?
**A.** Result: binds

**Q.** Does B2 bind?
**A.** Result: binds

**Q.** Does B3 bind?
**A.** Result: binds

**Q.** Does B4 bind?
**A.** Result: binds

**Q.** Does B5 bind?
**A.** Result: binds

These binders were tested against T1, cynomolgus CD3 (assay: flow cytometry on HSC-F cells, FIG. 7B).
Method: as §1, §2, §3

**Q.** Does B6 bind?
**A.** Result: binds

**Q.** Does B7 bind?
**A.** Result: binds

**Q.** Does B8 bind?
**A.** Result: binds

**Q.** Does B9 bind?
**A.** Result: binds

**Q.** Does B10 bind?
**A.** Result: binds

These binders were tested against T1, cynomolgus CD3 (assay: flow cytometry on HSC-F cells, FIG. 2A).
Method: as §1, §2, §3

**Q.** Does B11 bind?
**A.** Result: binds

**Q.** Does B12 bind?
**A.** Result: binds

**Q.** Does B13 bind?
**A.** Result: binds

**Q.** Does B14 bind?
**A.** Result: binds

**Q.** Does B15 bind?
**A.** Result: binds

**Q.** Does B16 bind?
**A.** Result: binds

**Q.** Does B17 bind?
**A.** Result: binds
